The labels stand for the following.
B1: SLP65_(1-330) (domain or fragment, UniProt Q8WV28 1-330, looked up)
chain: MDKLNKITVPASQKLRQLQKMVHDIKNNEGGIMNKIKKLKVKAPPSVPRRDYASESPADEEEQWSDDFDSDYENPDEHSDSEMYVMPAEENADDSYEPPPVEQETRPVHPALPFARGEYIDNRSSQRHSPPFSKTLPSKPSWPSEKARLTSTLPALTALQKPQVPPKPKGLLEDEADYVVPVEDNDENYIHPTESSSPPPEKAPMVNRSTKPNSSTPASPPGTASGRNSGAWETKSPPPAAPSPLPRAGKKPTTPLKTTPVASQQNASSVCEEKPIPAERHRGSSHRQEAVQSPVFPPAQKQIHQKPIPLPRFTEGGNPTVDGPLPSFSS
notes: Src homology 2 domain-containing leukocyte protein of 65 kDa (SLP65, BLNK), shortened at the C-terminus, residues 1-330, lacks the C-terminal SH2 domain; also called Wildtype SLP65_(1-330); BLNK
B2: SLP65-3xPRM4 (domain or fragment)
chain: B1 chain with I276S, A278L, E279P, I308S
modifications: 1-330 is printed; the text says PRMs are six residues long. The swapped limits are assumed: PRM5 275-280 and PRM6 307-312, each replaced by PRM4 242-247. Partly Atto430LS-labelled for microscopy.
B3: SLP65-R247A (domain or fragment, UniProt Q8WV28 1-330, looked up)
chain: B1 chain with R247A
notes: the C-terminally shortened version (1-330) was used for measurements
B4: CIN85-BBB (domain or fragment)
chain: RRRRRCQVAFSYLPQNDDELELKVGDIIEVVGEVEEGWWEGVLNGKTGMFPSNFIKELSGEMKKDPLTNKAPEKPLHEVPSGNSLLSSETILRTNKRGERRRRRCQVAFSYLPQNDDELELKVGDIIEVVGEVEEGWWEGVLNGKTGMFPSNFIKELSGESDELGISQDEQLSKSSLRETTGSESDGGDSSSTKSEGANGTVATAAIQPKKVKGVGFGDIFKDKPIKLRPRSIEVENDFLPVEKTIGKKLPATTATPDSSKTEMDSRTRRRRRCQVAFSYLPQNDDELELKVGDIIEVVGEVEEGWWEGVLNGKTGMFPSNFIKELSGDFEKE

Experiment in all cases: ITC; multivalent SLP65 constructs with multivalent CIN85 constructs (global KD); conditions in the SI Appendix
What all share (conditions): both partners purified
Background: Isothermal titration calorimetry measures the heat released or taken up as one component is titrated into another.

In test [1] the target is T1, CIN85-ABC (UniProt Q96B97 1-333).
T1 construct: also called CIN85_(1-333); wildtype-like CIN85-ABC construct
T1 sequence (looked up): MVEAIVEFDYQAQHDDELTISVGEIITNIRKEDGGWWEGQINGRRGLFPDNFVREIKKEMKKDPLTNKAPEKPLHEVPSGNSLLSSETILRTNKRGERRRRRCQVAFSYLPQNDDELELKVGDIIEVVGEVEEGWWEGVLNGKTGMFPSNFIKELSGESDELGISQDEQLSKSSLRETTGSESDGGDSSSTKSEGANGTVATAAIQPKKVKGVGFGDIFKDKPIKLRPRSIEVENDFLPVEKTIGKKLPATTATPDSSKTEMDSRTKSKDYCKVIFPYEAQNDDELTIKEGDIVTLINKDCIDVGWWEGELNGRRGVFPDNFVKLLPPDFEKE

Test [2] concerns the target B4.
Test [3] has as its target B1.

Residue numbers refer to the chain shown, from its start.

As a reminder, the Kd is the free concentration of one partner at which half of the binding sites on the other are occupied at equilibrium, for simple one-to-one binding. As to B1, in test [1], the Kd is 1360 ± 170 nM.
For the molecule B2, the figures for the Kd in test [2] and in test [1] were 140 ± 60 nM and 240 ± 10 nM, respectively.
Regarding B3, in test [1], binding was put at a Kd of 7040 ± 1120 nM.
In test [3], B4 registered a Kd of 700 ± 250 nM.

The values above are taken from article PMC10923291, “Quantitative description of the phase-separation behavior of the multivalent SLP65–CIN85 complex” (PNAS Nexus, 2024).
